Assay results from publication PMC5916898, “Global profiling of protein–DNA and protein–nucleosome binding affinities using quantitative mass spectrometry”.

T1: ZBTB43 (Homo sapiens, UniProt O43298)
T1 sequence: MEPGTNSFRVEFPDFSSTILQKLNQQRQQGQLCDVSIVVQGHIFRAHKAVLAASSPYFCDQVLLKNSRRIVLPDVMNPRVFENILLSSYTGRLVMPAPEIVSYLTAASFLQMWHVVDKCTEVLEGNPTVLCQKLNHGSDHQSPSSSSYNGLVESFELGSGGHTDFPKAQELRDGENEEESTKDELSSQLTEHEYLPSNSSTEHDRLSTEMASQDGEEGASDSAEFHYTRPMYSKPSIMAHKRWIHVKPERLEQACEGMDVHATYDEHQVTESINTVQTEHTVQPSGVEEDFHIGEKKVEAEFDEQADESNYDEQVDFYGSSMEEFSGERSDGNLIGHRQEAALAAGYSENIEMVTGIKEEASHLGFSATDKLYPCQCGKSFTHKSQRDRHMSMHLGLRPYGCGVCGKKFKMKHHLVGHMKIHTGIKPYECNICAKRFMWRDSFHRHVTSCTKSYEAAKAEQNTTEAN

T2: ZNF512B (Homo sapiens, UniProt Q96KM6)
T2 sequence: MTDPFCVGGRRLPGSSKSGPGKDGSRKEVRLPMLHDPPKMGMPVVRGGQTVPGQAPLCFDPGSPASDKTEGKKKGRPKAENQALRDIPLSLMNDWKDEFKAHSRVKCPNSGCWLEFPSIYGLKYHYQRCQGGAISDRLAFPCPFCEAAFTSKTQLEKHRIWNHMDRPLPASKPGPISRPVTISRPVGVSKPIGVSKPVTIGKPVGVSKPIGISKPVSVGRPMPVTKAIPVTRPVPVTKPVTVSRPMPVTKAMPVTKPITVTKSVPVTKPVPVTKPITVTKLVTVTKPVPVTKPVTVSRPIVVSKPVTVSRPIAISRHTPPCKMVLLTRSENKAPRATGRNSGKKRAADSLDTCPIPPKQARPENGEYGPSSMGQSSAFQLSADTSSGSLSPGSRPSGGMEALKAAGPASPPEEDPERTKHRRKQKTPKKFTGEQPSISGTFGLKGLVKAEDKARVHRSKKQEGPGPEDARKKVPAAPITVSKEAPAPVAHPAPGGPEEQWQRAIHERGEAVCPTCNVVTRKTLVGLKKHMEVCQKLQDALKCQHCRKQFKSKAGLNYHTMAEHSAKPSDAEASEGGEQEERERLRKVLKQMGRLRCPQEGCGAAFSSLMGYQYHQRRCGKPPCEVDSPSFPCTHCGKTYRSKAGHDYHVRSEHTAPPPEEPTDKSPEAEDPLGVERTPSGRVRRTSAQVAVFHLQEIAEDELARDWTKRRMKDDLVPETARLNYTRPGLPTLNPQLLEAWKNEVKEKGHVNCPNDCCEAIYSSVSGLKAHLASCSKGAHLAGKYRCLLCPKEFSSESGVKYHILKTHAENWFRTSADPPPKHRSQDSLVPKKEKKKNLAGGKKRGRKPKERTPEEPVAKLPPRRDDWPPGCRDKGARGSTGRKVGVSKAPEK

T3: CTCF (Homo sapiens, UniProt P49711)
T3 sequence: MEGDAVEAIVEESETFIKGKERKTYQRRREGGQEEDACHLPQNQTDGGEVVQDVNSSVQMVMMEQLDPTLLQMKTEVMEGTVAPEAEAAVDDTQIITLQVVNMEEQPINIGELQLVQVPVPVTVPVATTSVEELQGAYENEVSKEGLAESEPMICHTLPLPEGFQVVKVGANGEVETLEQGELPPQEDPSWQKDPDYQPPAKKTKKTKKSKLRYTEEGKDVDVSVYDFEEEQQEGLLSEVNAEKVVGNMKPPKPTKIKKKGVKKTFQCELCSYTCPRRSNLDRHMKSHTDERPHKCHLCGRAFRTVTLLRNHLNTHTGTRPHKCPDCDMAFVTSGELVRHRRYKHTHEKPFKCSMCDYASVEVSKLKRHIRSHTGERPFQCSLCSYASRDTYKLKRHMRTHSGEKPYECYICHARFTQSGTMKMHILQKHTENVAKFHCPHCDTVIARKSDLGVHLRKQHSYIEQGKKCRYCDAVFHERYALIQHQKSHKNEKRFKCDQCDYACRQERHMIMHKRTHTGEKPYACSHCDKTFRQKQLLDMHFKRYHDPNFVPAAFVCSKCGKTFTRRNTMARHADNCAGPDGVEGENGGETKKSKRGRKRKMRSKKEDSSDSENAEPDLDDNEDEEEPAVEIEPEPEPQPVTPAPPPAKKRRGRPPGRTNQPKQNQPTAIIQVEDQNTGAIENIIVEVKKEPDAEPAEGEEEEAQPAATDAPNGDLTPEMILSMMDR


Key:
Assay in all cases: pulldown; 150 mM NaCl, 50 mM Tris pH 8, 0.25% NP-40, 1 mM TCEP; 4 C, 2 h; 100 ug HeLa nuclear lysate
TEAD4 = TEAD4 (Homo sapiens, UniProt Q15561); conditions: protein: extract; label: 5' biotin (strand 1)
TEAD4, sequence (Q15561 whole entry): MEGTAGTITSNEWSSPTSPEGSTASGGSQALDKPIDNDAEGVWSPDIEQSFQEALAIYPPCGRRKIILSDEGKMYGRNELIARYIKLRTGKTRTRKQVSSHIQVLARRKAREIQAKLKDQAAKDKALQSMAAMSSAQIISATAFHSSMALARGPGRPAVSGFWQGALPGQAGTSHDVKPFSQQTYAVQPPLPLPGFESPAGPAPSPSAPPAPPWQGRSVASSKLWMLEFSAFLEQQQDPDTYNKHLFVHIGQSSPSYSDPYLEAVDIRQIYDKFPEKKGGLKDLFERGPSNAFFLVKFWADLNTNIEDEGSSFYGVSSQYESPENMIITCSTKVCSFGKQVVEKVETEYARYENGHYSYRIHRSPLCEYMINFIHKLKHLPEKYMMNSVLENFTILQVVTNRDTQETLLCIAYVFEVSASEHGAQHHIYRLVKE

HIVEP1 = HIVEP1 (Homo sapiens, UniProt P15822)
ZBTB43 = molecular target: T1, ZBTB43; conditions: protein: extract; label: 5' biotin (strand 1)
ZNF512B = molecular target: T2, ZNF512B; conditions: protein: extract; label: 5' biotin (strand 1)
CTCF = molecular target: T3, CTCF; conditions: protein: extract; label: 5' biotin (strand 1)
SP4 = SP4 (Homo sapiens, UniProt Q02446); conditions: protein: extract; label: 5' biotin (strand 1)
SP4, sequence (Q02446 whole entry): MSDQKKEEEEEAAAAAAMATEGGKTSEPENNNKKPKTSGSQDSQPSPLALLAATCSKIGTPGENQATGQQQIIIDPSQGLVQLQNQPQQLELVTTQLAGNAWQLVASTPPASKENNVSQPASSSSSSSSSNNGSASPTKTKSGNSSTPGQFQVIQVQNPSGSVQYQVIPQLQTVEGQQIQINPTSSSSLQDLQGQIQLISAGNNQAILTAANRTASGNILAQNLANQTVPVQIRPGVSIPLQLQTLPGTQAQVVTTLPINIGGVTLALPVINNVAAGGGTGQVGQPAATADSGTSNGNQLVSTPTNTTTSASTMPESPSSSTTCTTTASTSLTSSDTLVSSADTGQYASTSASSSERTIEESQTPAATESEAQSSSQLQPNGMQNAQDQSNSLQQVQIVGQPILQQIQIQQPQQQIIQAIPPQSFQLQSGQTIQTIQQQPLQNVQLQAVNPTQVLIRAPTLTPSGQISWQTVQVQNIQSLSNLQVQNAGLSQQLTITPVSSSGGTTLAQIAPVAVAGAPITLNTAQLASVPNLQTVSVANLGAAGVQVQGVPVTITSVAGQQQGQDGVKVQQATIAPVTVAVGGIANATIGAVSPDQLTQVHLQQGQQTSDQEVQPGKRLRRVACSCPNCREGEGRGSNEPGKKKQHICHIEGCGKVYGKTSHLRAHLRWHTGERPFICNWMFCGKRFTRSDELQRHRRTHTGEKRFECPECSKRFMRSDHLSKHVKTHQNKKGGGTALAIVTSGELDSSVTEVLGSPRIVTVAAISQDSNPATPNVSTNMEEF

Row | Binder | apparent K (half saturation) (TEAD4) [nM] | apparent K (half saturation) (HIVEP1) [nM] | apparent K (half saturation) (ZBTB43) [nM] | apparent K (half saturation) (ZNF512B) [nM] | apparent K (half saturation) (CTCF) [nM] | apparent K (half saturation) (SP4) [nM]
1 | TEAD (dsDNA) DNA 1: TCGGGACCCAGGCCTGGAATGTTTCCACC DNA 2: GGTGGAAACATTCCAGGCCTGGGTCCCGA | 15.3 |  |  |  |  | 
2 | CTCF (dsDNA) DNA 1: TCAGAGTGGCGGCCAGCAGGGGGCGCCCTTGCCAGA DNA 2: TCTGGCAAGGGCGCCCCCTGCTGGCCGCCACTCTGA |  | 76.6 | 347 | 353 | 16.1 | 41.3
